Laboratory results taken from patent publication US20240026017A1 (Kyowa Kirin, published 2024).
Numbering of substitutions follows the chain as printed. One block for each binder: values may come before it.

Experiments:
[1] = biological target: T1, human CC chemokine receptor 1 (human CCR1) (human, UniProt P32246 1-355); experiment: flow cytometry on CHO-S-hCCR1 cells; bound = fluorescence 10 times or more that of isotype control hzDNP1
T1 construct: endogenous on THP-1 cells in the migration assays; also called hCCR1; CHO-S-hCCR1 (expressing cells)
T1 sequence: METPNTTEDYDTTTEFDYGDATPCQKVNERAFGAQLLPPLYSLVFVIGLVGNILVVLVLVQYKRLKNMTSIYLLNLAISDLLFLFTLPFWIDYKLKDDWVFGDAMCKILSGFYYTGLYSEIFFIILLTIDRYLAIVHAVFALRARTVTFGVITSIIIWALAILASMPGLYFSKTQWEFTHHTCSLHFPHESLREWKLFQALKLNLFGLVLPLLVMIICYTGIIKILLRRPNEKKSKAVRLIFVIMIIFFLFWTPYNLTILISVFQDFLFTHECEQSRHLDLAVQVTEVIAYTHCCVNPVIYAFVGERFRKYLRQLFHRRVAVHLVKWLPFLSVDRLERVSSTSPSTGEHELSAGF
Protocol: (§1) The antigen affinity of the chKM5908′ antibody, which is a VL-substituted chimeric antibody, was measured by flow cytometry using the CHO-S-hCCR1 cells produced in Example 2. The cells were collected by centrifugation, the supernatant was removed, and the cells were suspended in PBS (Staining Medium, hereinafter, abbreviated as SM) containing 2% fetal bovine serum (FBS), 0.05% NaN₃, and 1 mM EDTA. Next, the cells were seeded in a 96-well plate so that the number of cells is 1×10⁵ per well, and the chKM5908′ antibody was added at each final concentration of 10,000, 2,000, 400, 80, 16, and 3.2 ng/mL, and the reaction was performed at 4° C. for 60 minutes. After washing the cells with SM, Goat F (ab′)₂ Anti-Human IgG PE (γ chain specific) (Southern Biotech) diluted 500-fold with SM was added and reacted at 4° C. for 60 minutes. After washing the cells with SM, the cells were resuspended in 50 μL of SM, and the fluorescence intensity was measured by the flow cytometry (FACS Canto II, BD Biosciences).
Next, a modified antibody was obtained using the method described in Example 12-(3). […] Hereinafter referred to as hzDNP1)] were determined to bind to the human CCR1.

[2] = biological target: T1, human CC chemokine receptor 1 (human …); experiment: flow cytometry on CHO-S-hCCR1 cells; bound = fluorescence 10 times or more that of isotype control chDNP1
Protocol: as §1
1996 June; 33 (9):759-68, hereinafter, referred to as chDNP1)] were determined to be bound to the human CCR1.

B1: hzmAb5-06 LV2aHV17 antibody (antibody, V domains shown)
VH: QVQLQQSGPGLVKPSQTLSITCTVSGFSLNNYGVHWVRQPPGKGLEWLGVIWSAGTTVYNAAAISRLTISKDDSKSQVSFKMSSLTAADTAIYYCAKDGSRYYTAMDYWGQGTLVTVSS
VL: DIVMTQSPLSLPVTLGEPASISCRSSQSLVHRNGITFFHWYLQKPGQSPKLLIYKISNRFSGVPDRFSGSGSGTDFTLKISRVEAEDVGVYYCSQGTHVPPTFGQGTKVEIK
notes: humanized
- binding result [1]: binds

B8: hzKM5916 LV0HV1 antibody (antibody, V domains shown)
VH: QVQLQESGGGLVKPGGSLKLSCAASGFTFSRNAMSWVRQTPDKRLEWVAYISSGSDYIYYADTVKGRFTISRDNAKNTLYLQMSSLKSEDTAMYYCTRFSYGYGKNAPDYWGQGTMVTVSS
VL: DIQMTQSPSSLSASVGDRVTITCKASQDINKYIAWYQQKPGKAPKLLIHYTSSLQPGVPSRFSGSGSGTDFSFTISSLQPEDLATYYCLQYDYTMTFGGGTKVEIK
notes: humanized; also called hzmAb5916 LV0HV1
- binding result [1]: binds

B11: hzKM5916 LV2HV3 antibody (antibody, V domains shown)
VH: B8 VH with D42E, K87R
VL: B8 VL with Q38H, A43G
notes: humanized; also called hzmAb5916 LV2HV3
- binding result [1]: binds

B12: hzKM5916 LV2HV1 antibody (antibody, V domains shown)
VH: B8 VH
VL: B8 VL with Q38H, A43G
notes: humanized; also called hzmAb5916 LV2HV1
- binding result [1]: binds

B13: hzKM5907 LV2bHV2a antibody (antibody, V domains shown)
VH: EVQLLESGGGLVQPGGSLRLSCAASGFTFSRYGMSWVRQAPGKRLEWVSSISATFTYTYYTDNVKGRFTISRDNSKNTLYLQMNSLRAEDTAVYYCARQDNYAWFDSWGQGTLVTVSS
VL: DIVMTQTPLSLPVTSGEPVSISCRSSQSIVHSNGNTFLEWYLKKPGQSPQLLIYKVSSRFSGVPDRFSGSGSGTDFTLKISRVEAEDVGVYYCFQGSHIPWTFGGGTKVEIK
notes: humanized; also called hzmAb5907 LV2bHV2a
- binding result [1]: binds

B14: hzKM5907 LV2bHV4 antibody (antibody, V domains shown)
VH: B13 VH with R44G, S49A, A92G, A97T
VL: B13 VL
notes: humanized; also called hzmAb5907 LV2bHV4
- binding result [1]: binds

B15: hzKM5907 LV2bHV0 antibody (antibody, V domains shown)
VH: B13 VH with R44G, R98K
VL: B13 VL
notes: humanized; also called hzmAb5907 LV2bHV0
- binding result [1]: binds

B16: hzKM5907 LV0HV7 antibody (antibody, V domains shown)
VH: B13 VH with L4V, S49A, A92G, V93M, A97T
VL: B13 VL with V19A, K43Q
notes: humanized; also called hzmAb5907 LV0HV7
- binding result [1]: binds

B17: hzKM5907 LV1aHV7 antibody (antibody, V domains shown)
VH: B13 VH with L4V, S49A, A92G, V93M, A97T
VL: B13 VL with V19A
notes: humanized; also called hzmAb5907 LV1aHV7
- binding result [1]: binds

B21: hzKM5907 LV1bHV7 antibody (antibody, V domains shown)
VH: B13 VH with L4V, S49A, A92G, V93M, A97T
VL: B13 VL with V19A, K43Q, Q50K
notes: humanized; also called hzmAb5907 LV1bHV7
- binding result [1]: binds

B22: hzKM5907 LV2aHV7 antibody (antibody, V domains shown)
VH: B13 VH with L4V, S49A, A92G, V93M, A97T
VL: B13 VL with V19A, Q50K
notes: humanized; also called hzmAb5907 LV2aHV7
- binding result [1]: binds

B24: hzKM5907 LV0HV0 antibody (antibody, V domains shown)
VH: B13 VH with R44G, R98K
VL: B13 VL with V19A, K43Q
notes: humanized; also called hzmAb5907 LV0HV0
- binding result [1]: binds

B25: hzKM5907 LV2aHV0 antibody (antibody, V domains shown)
VH: B13 VH with R44G, R98K
VL: B13 VL with V19A, Q50K
notes: humanized; also called hzmAb5907 LV2aHV0
- binding result [1]: binds

B29: hzKM5907 LV1cHV7 antibody (antibody, V domains shown)
VH: B13 VH with L4V, S49A, A92G, V93M, A97T
VL: B13 VL with K43Q
notes: humanized; also called hzmAb5907 LV1cHV7
- binding result [1]: binds

B30: hzKM5907 LV4HV0 antibody (antibody, V domains shown)
VH: B13 VH with R44G, R98K
VL: B13 VL with S15L, Q50K
notes: humanized; also called hzmAb5907 LV4HV0
- binding result [1]: binds

B31: hzKM5907 LV2bHV3c antibody (antibody, V domains shown)
VH: B13 VH with A92G, A97T, R98K
VL: B13 VL
notes: humanized; also called hzmAb5907 LV2bHV3c
- binding result [1]: binds

B32: hzKM5907 LV1bHV0 antibody (antibody, V domains shown)
VH: B13 VH with R44G, R98K
VL: B13 VL with V19A, K43Q, Q50K
notes: humanized; also called hzmAb5907 LV1bHV0
- binding result [1]: binds

B33: chKM5908′ mut05 (antibody, V domains shown)
VH: QVQLKQSGPGLVQPSQSLSITCTVSGFSLNNYGVHWVRQPPGKGLEWLGVTWSAGTTVYNAAFISRLSISKDDSKSQVFFKMNSLQAGDTAIYYCAKDGSRYYTAMDYWGQGTSVTVSS
VL: DVVMTQTPLSLPVSLGDQASIFCRSSQSLVHRNGITFFHWYLQKPGQSPKLLIYKVSNRFSGVPDRFSGSGSGTDFTLKISRVAPDDLGVYFCSQGTHVPPTFGGGTKLEIK
- binding result [2]: binds

Results, then the binder that gave them:

- binding result [1]: binds
B2: hzmAb5-06 LV2bHV17 antibody (antibody, V domains shown)
VH: B1 VH
VL: B1 VL with L15P, Y92F
notes: humanized

- binding result [1]: binds
B3: hzmAb5-06 LV1aHV17 antibody (antibody, V domains shown)
VH: B1 VH
VL: B1 VL with L15P
notes: humanized

- binding result [1]: binds
B4: hzmAb5-06 LV0HV17 antibody (antibody, V domains shown)
VH: B1 VH
VL: B1 VL with L15P, K50Q
notes: humanized

- binding result [1]: binds
B5: hzmAb5-06 LV5HV17 antibody (antibody, V domains shown)
VH: B1 VH
VL: B1 VL with I2V, Y92F, V109L
notes: humanized

- binding result [1]: binds
B6: hzmAb5-06 LV4HV17 antibody (antibody, V domains shown)
VH: B1 VH
VL: B1 VL with Y92F, V109L
notes: humanized

- binding result [1]: binds
B7: hzmAb5-06 LV1bHV17 antibody (antibody, V domains shown)
VH: B1 VH
VL: B1 VL with K50Q
notes: humanized

- binding result [1]: binds
B9: hzKM5916 LV0HV3 antibody (antibody, V domains shown)
VH: B8 VH with D42E, K87R
VL: B8 VL
notes: humanized; also called hzmAb5916 LV0HV3

- binding result [1]: binds
B10: hzKM5916 LV0HV0 antibody (antibody, V domains shown)
VH: B8 VH with T97A
VL: B8 VL
notes: humanized; also called hzmAb5916 LV0HV0

- binding result [1]: binds
B18: hzKM5907 LV2bHV1 antibody (antibody, V domains shown)
VH: B13 VH with R98K
VL: B13 VL
notes: humanized; also called hzmAb5907 LV2bHV1

- binding result [1]: binds
B19: hzKM5907 LV2bHV3b antibody (antibody, V domains shown)
VH: B13 VH with S49A, A97T, R98K
VL: B13 VL
notes: humanized; also called hzmAb5907 LV2bHV3b

- binding result [1]: binds
B20: hzKM5907 LV2bHV2b antibody (antibody, V domains shown)
VH: B13 VH with R44G, S49A
VL: B13 VL
notes: humanized; also called hzmAb5907 LV2bHV2b

- binding result [1]: binds
B23: hzKM5907 LV4HV7 antibody (antibody, V domains shown)
VH: B13 VH with L4V, S49A, A92G, V93M, A97T
VL: B13 VL with S15L, Q50K
notes: humanized; also called hzmAb5907 LV4HV7

- binding result [1]: binds
B26: hzKM5907 LV2bHV7 antibody (antibody, V domains shown)
VH: B13 VH with L4V, S49A, A92G, V93M, A97T
VL: B13 VL
notes: humanized; also called hzmAb5907 LV2bHV7

- binding result [1]: binds
B27: hzKM5907 LV1cHV0 antibody (antibody, V domains shown)
VH: B13 VH with R44G, R98K
VL: B13 VL with K43Q
notes: humanized; also called hzmAb5907 LV1cHV0

- binding result [1]: binds
B28: hzKM5907 LV1aHV0 antibody (antibody, V domains shown)
VH: B13 VH with R44G, R98K
VL: B13 VL with V19A
notes: humanized; also called hzmAb5907 LV1aHV0

- binding result [2]: binds
B34: chKM5908′ mut04 (antibody, V domains shown)
VH: B33 VH with T51I
VL: B33 VL with F38A, V56I

- binding result [2]: binds
B35: chKM5908′ mut06 (antibody, V domains shown)
VH: B33 VH with T51I, V58A
VL: B33 VL
